Experimental data taken from patent US5876971A, “Thrombin inhibitor from the saliva of protostomia” (Schering Aktiengesellschaft, priority 1992, dated 1999).

Experiments:
thrombin [1] = assay: Inhibition of the thrombin activity in the clotting test (fibrinogen cleavage); assay type: biochemical
Protocol: Inhibition of the thrombin activity in the clotting test
In a microtiterplate, which is coated with bovine serum albumin (0.1% in 0.1 mol/l of NaHCO3, pH 9.5), 80 μl of 20 mmol/l of HEPES, pH 7.4; […] of NaCl; 20 μl of 20 mmol/l of CaCl2; 100 μl of a diluted solution of the protein of the invention (5-50 ng) and 20 μl of thrombin (0.03 IU=0.03 International Units) are pipetted. After an incubation of 2 minutes at 37° C., 100 μl of fibrinogen (5 mg/ml) is added and incubated for 40 minutes at 37° C. Then, the absorption is measured at 405 nm. […] (See FIG. 3)

thrombin [2] = assay: Inhibition of the thrombin activity in the amidolytic test (substrate S2238); assay type: biochemical; settings: inhibitor 6 nmol/l; thrombin 0.03 IU
Protocol: Inhibition of the thrombin activity in the amidolytic test
In a microtiterplate, 80 μl of 100 mmol/l of tris/HCl, pH 7.4; 150 mmol/l of NaCl and 0.03 IU ([…]) of thrombin and 100 μl of a diluted solution of the protein of the invention (32-630 ng) are incubated for 10 minutes at 37° C. and then mixed with 100 μl (50 nmol) of substrate S2238 (Kabi Vitrum). After an incubation of 30 minutes at 37° C., the absorption is measured at 405 nm. 630 ng (117 nmol/l) inhibits the activity of the thrombin to approximately 50%. […] (See FIG. 2)

thrombin [3] = biological target: thrombin
thrombin [4] = biological target: thrombin; remark: listed apart in the source
thrombin [5] = biological target: thrombin; remark: listed apart in the source
thrombin [6] = biological target: thrombin; remark: listed apart in the source

hirudin
inhibition of fibrinogen cleavage (clotting) (thrombin [1]; inhibitor 8 nmol/l (45 ng), thrombin 0.03 IU (1.27 nmol/l), absorption at 405 nm): complete inhibition
inhibition of thrombin activity in the amidolytic test (thrombin [2]): 85%

thrombin inhibitor purified from the saliva of Triatoma pallidipennis (protein of the invention, purified according to Example 1)
inhibition of the thrombin activity in the clotting test (fibrinogen cleavage, absorption at 405 nm) (thrombin [3]): 8 nmol/L
inhibition of the thrombin activity in the amidolytic test (substrate S2238, absorption at 405 nm); concentration giving approximately 50% inhibition (thrombin [4]): 117 nmol/L
inhibition of thrombin-induced blood platelet aggregation (aggregometer) (thrombin [5]): 15 ng/mL
lengthening of the thrombin time (plasma clotting after adding thrombin) (thrombin [6]): 35 nmol/L

B1: purified fraction: recombinant mature protein (Ti28=seq. id. no. 2) produced in E. coli, purified by ion exchange and thrombin affinity chromatography (protein)
chain: AEGDDCSLEKAMGDFKPEEFFNGTWYLAHGPDVTSPAVCQKFTTSGSKGFTQIVEIGYNKFESNVKFQCNQVDNKNDEQYSFKCKGSDNTEFEADFTFISVSYDNFALVCRSIIFTSQPKEDDYLVFERTKSDTDPDANEIC
inhibition of thrombin activity in the clotting test (qualitative) (thrombin [1]; material from transformed E. coli, concentration not given): same inhibitory activity as the saliva protein
